From paper PMC7553327, “The vimentin rod domain blocks P-selectin-P-selectin glycoprotein ligand 1 interactions to attenuate leukocyte adhesion to inflamed endothelium” (PLoS ONE, 2020) come the findings set out here.

The target of series [1] is T1, P-selectin/Fc (human, UniProt P16109 42-771).
T1 construct: P-selectin; Labelled with IR800CW dye for the SPOT-Vim array; No catalogue number printed; also called P-sel/Fc; P-sel/Fc-IR800; source: bought: R & D Systems
T1 sequence (looked up): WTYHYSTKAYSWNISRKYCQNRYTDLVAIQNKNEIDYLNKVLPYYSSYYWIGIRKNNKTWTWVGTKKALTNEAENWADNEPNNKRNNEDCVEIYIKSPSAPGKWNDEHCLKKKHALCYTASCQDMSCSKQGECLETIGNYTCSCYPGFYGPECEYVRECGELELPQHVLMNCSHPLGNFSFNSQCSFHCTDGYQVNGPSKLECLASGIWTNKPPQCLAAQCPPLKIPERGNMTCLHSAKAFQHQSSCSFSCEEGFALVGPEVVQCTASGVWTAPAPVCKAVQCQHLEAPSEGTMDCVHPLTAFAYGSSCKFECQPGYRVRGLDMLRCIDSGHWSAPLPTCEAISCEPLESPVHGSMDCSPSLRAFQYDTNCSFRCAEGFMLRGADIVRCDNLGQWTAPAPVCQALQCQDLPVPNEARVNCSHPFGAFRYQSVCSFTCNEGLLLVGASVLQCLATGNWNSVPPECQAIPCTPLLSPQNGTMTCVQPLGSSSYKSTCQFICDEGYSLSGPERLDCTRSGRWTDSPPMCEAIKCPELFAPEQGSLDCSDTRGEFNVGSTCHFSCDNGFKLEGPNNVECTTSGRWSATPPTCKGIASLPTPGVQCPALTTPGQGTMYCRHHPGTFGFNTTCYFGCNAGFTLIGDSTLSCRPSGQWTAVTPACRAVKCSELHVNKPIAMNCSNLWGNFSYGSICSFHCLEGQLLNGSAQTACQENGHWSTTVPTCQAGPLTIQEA
As to the kind of experiment: BLI; P-sel/Fc or PSGL-1/Fc (10 μg/mL) immobilised on anti-human IgG Fc (AHC) sensors; rhVim or rhRod as analyte, 0–1,000 nM; DPBS; steady state analysis. The note with it: both partners purified.

Series [2] addresses T1, P-selectin/Fc. As to the kind of experiment: BLI; rhVim or rhRod (50 μg/mL) immobilised by amine coupling on AR2G sensors; P-sel/Fc or PSGL-1/Fc as analyte, 0–1,000 nM; DPBS; steady state analysis. The note with it: both partners purified.
Series [3] addresses T1, P-selectin/Fc. The series can be described thus: BLI; separate set of experiments: room temperature aliquot of rhRod (1,000 nM) on immobilized P-sel/Fc, performed as above; DPBS. The note with it: both partners purified. A general note: BLI is a label-free optical method that tracks binding on a fibre tip over time.
For series [4], the target named is T1, P-selectin/Fc. As to the kind of experiment: BLI; blocking: P-sel/Fc on AR2G sensors placed into rhRod 0–1,000 nM (association, then dissociation in DPBS), then into 500 nM PSGL-1/Fc (Sino Biological); PSGL-1/Fc response against rhRod concentration, non-linear regression; in duplicate. The conditions noted are these: both partners purified.
Series [5] deals with the molecule itself. As to the kind of experiment: SDS-PAGE in non-reducing and reducing conditions, Coomassie stain; purified protein; non-reduced against reduced.
The target in series [6] is T1, P-selectin/Fc. The series can be described thus: BLI; P-sel/Fc immobilised on AR2G sensors; PSGL-1/Fc (Sino Biological) as analyte, 0–1,000 nM; DPBS; in duplicate. The note with it: both partners purified.

What is called Kd is the free concentration of one partner at which half of the binding sites on the other are occupied at equilibrium, for simple one-to-one binding. High values mean a looser complex, low ones a tighter complex. In general, IC50 refers to the point on the concentration scale where inhibition reaches its midpoint.

B1: recombinant human rod domain of vimentin (domain or fragment)
chain: not shown
notes: vimentin, human, rod domain, aa residues 96-407 (base pairs 717-1,652 of NM_00380.3 as printed); 38.2 kDa used for concentration; Labelled with IR800CW dye for the SPOT-Psel array; Dimerized in non-reducing SDS-PAGE. ΔrhRod is the same protein after 10 minutes in boiling water; also called rhRod; rod domain of recombinant vimentin
Regarding B1, the dissociation constant (Kd) stood at 10 ± 0.6 nM with P-selectin/Fc [1], 41 ± 6 nM with P-selectin/Fc [2] and 280 ± 61 nM in the series with P-selectin/Fc [3]. This molecule also had an IC50 with P-selectin/Fc [4] of 20 nM. Also, the binding result in series [5] was “binds”.

B2: recombinant human PSGL-1/Fc (Sino Biological Inc.) (Fc fusion, UniProt Q14242 42-320, looked up)
chain: QATEYEYLDYDFLPETEPPEMLRNSTDTTPLTGPGTPESTTVEPAARRSTGLDAGGAVTELTTELANMGNLSTDSAAMEIQTTQPAATEAQTTQPVPTEAQTTPLAATEAQTTRLTATEAQTTPLAATEAQTTPPAATEAQTTQPTGLEAQTTAPAAMEAQTTAPAAMEAQTTPPAAMEAQTTQTTAMEAQTTAPEATEAQTTQPTATEAQTTPLAAMEALSTEPSATEALSMEPTTKRGLFIPFSVSSVTHKGIPMAASNLSVNYPVGAPDHISVKQC
notes: P-selectin glycoprotein ligand-1, human; No catalogue number printed; source: bought: Sino Biological Inc
Consider B2, for which, in the series with P-selectin/Fc [6], the affinity, expressed as Kd, was 240 ± 67 nM.
